Source: patent publication US20240123068A1 (KITE PHARMA, published 2024)
Values belong to the molecule of their own block, whether it stands above or below them.

What was measured:
[1] = molecular target: FCGR1A (FCGR protein) of the membrane proteome array (human) (UniProt P12314); assay: validation titration, flow cytometry on transfected HEK-293T cells
[2] = molecular target: Protein A (positive assay control transfected into cells) (UniProt P38507); assay: as above
[3] = molecular target: T1, FITC-Labeled human CD19 protein (ACROBiosystem, Cat-CD9-HF251) (human, UniProt P15391 20-291, FITC label); assay: flow cytometry, premixed CD19-FITC protein and anti-CD19 PE (FMC63 clone) 1:1; FITC gate; competitor anti-CD19 PE (untransduced 0.21)
T1 construct: The text calls the same reagent CD19-FITC and CD19-GFP; also called CD19-FITC protein; CD19-FTC protein
T1 sequence (looked up): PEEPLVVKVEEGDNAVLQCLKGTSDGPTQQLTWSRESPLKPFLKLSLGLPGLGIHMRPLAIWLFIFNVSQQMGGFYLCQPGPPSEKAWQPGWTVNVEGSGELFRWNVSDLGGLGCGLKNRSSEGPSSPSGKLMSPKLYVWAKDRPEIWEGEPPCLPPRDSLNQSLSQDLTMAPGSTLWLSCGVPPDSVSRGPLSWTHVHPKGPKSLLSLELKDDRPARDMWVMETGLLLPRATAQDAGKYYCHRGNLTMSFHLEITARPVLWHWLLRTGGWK
Protocol: (§1) In the second set of assays, CAR T cells were co-incubated with the CD19-FTC protein and the anti-CD19 PE (FMC63 clones) at 1:1 or 1:3 ratio for 15 minutes. The CAR T cells were then stained and incubated for 20 minutes before imaging by flow cytometry. […] The CAR T cells were gated for anti-CD19 PE (anti-FMC63 antibody; idiotype antibody binding) and the CD19 binder CAR binder FITC (CD19-GFP detection).

[4] = molecular target: T1, FITC-Labeled human CD19 protein …; assay: flow cytometry, premixed CD19-FITC protein and anti-CD19 PE (FMC63 clone) 1:3; FITC gate; competitor anti-CD19 PE (untransduced 0.21)
Protocol: as §1

[5] = molecular target: T1, FITC-Labeled human CD19 protein …; assay: flow cytometry, ND539 CAR T cells day 9, CD19-FITC protein only (untransduced 0.85)
Protocol: At day 9 (D9) post-transduction, frozen ND539 CAR T cells were incubated with a fluorescently labeled recombinant CD19 protein. The CD19 CAR T cells were then analyzed by flow cytometry to determine the binding of the recombinant molecules to the CD19 CAR T cells. ND539 CAR T cells expressing a CAR comprising a FMC63 binder were used as control. Flow was gated for CD19 binder CAR.

[6] = molecular target: T2, Human CD19, wild-type full-length protein expressed on cells (human, UniProt P15391 20-556); assay: cell-based or functional assay
T2 sequence: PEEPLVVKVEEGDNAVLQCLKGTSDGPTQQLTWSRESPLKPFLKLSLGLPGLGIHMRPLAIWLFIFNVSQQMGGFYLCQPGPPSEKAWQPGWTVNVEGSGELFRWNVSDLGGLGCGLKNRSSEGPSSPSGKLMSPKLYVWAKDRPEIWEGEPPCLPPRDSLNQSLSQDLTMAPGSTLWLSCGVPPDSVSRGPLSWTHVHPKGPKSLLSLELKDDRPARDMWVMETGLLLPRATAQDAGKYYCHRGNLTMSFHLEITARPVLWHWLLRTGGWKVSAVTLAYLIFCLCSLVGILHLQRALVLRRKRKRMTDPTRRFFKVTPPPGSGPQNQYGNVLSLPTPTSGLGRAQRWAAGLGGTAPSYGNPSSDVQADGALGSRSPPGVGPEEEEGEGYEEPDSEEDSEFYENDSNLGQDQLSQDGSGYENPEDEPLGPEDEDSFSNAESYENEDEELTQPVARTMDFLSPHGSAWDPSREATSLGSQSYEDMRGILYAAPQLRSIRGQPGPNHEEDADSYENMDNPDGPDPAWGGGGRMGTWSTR

[7] = molecular target: T1, FITC-Labeled human CD19 protein …; assay: flow cytometry, CD19-FITC protein added after anti-FMC63 Ab PE; FITC gate; competitor anti-FMC63 Ab (untransduced 0.86)
Protocol: To determine whether the anti-FMC63 antibody and the CD19 binders could bind the same region on the CD19 protein, competitive assays were performed. In the first set of experiments, the CD19 CAR T cells were first incubated with 1 ul of anti-FMC63 antibody PE for 20 minutes. After the incubation period, 2 ul of the CD19-FITC protein was added to the CAR T cells, which were further incubated for another 20 minutes. The CAR T cells were washed and assessed by Flow cytometry. The CAR T cells were gated for anti-FMC63 antibody (idiotype antibody binding) and the CD19 CAR binders (CD19-GFP detection).

[8] = molecular target: T2, Human CD19, wild-type full-length …; assay: scFv clone screen on NALM6 cells with and without CD19
Description: To ensure that the up to (30) clones could recognize native CD19 expressed on tumor cells, the clones (scFv) were also screened against NALM6 tumor cell line positive (+) CD19 expression (NALM6 cell line⁺ CD19). CD19 knockout Nalm6 cell line (NALM6 cell line⁻ CD1; or CD19KO Nalm6 cell line) were used as a negative control for the selection. CD19KO Nalm6 cell lines used for the screen were engineered CRISPR knocked-out (KO) Nalm6-CD19KO cells. Clones that bound CD19⁺ NALM6 tumor cells, but not CD19-NALM6 tumor cells (CD19KO) were selected (Step 4).

FCGR1A (FCGR protein) of the membrane proteome array (human), sequence (P12314 16-374): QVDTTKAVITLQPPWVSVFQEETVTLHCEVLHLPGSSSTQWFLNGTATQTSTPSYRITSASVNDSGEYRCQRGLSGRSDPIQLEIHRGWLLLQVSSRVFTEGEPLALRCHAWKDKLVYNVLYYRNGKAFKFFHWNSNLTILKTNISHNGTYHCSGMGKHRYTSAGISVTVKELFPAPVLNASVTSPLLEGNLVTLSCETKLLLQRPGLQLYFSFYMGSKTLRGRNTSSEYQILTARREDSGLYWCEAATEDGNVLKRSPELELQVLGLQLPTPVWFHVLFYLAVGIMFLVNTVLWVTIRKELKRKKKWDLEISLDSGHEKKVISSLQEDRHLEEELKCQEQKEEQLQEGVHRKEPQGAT

MFI signal, fold above negative control [1]: > 45 fold | MFI signal, fold above negative control [2]: > 190 fold
Molecule: isotype control article (Example 13)

binding result [8]: binds
B8: CD19 15 scFv (P9) (scFv)
scFv: DIQMTQSPSSLSASVGDRVTITCRASQPIRPYLNWYQQKPGKAPKLLIYDASSLQSGVPSRFSGSGSGTDFTLTISSLQPEDFATYYCQQSYSAPYTFGQGTKVEIKGGGGSGGGGSGGGGSEVQLLESGGGLVQPGGSLRLSCAASGFTFSSYAMSWVRQAPGKGLEWVSVISGGGANTYYADSVKGRFTISRDNSKNTLYLQMNSLRAEDTAVYYCARDWRYFDHWGQGTLVTVSS
notes: also called 50; clone 50

binding result [8]: binds
B9: CD19 16 scFv (P10) (scFv)
scFv: QSVLTQPPSVSGAPGQRVTISCTGSSSNIGAGYDVHWYQQLPGTAPKLLIYGNNNRPSGVPDRFSGSKSGTSASLAITGLQAEDEADYYCQSYDVSLGVWVFGGGTKLTVLGGGGSGGGGSGGGGSQLQLQESGPGLVKPSETLSLTCTVSGGSISSPSYYWGWIRQPPGKGLEWIGSIYYTGATYYNPSLKSRVTISVDTSKNQFSLKLSSVTAADTAVYYCARYGPAGVGFDYWGQGTLVTVSS
notes: also called 51; clone 51

binding result [8]: binds
B10: CD19 18 scFv (P11) (scFv)
scFv: QSVLTQPPSVSGAPGQRVTISCTGSSSNIGAGYDVHWYQQLPGTAPKLLIYGTKNRPSGVPDRFSGSKSGTSASLAITGLQAEDEADYYCQSYDVRLKGWVFGGGTKLTVLGGGGSGGGGSGGGGSQLQLQESGPGLVKPSETLSLTCTVSGGSITSSSYYWGWIRQPPGKGLEWIGSIYYTGTTYYNPSLKSRVTISVDTSKNQFSLKLSSVTAADTAVYYCARYVGLSGGFDYWGQGTLVTVSS
notes: also called 52; clone 52

Further lines, the molecule ahead of its results:

B1: CD19 CAR comprising CD19 binder 52 (anti-CD19 scFv-BBz CAR) on T cells (other)
chain: QSVLTQPPSVSGAPGQRVTISCTGSSSNIGAGYDVHWYQQLPGTAPKLLIYGTKNRPSGVPDRFSGSKSGTSASLAITGLQAEDEADYYCQSYDVRLKGWVFGGGTKLTVLGGGGSGGGGSGGGGSQLQLQESGPGLVKPSETLSLTCTVSGGSITSSSYYWGWIRQPPGKGLEWIGSIYYTGTTYYNPSLKSRVTISVDTSKNQFSLKLSSVTAADTAVYYCARYVGLSGGFDYWGQGTLVTVSSTTTPAPRPPTPAPTIASQPLSLRPEACRPAAGGAVHTRGLDFACDIYIWAPLAGTCGVLLLSLVITLYCKRGRKKLLYIFKQPFMRPVQTTQEEDGCSCRFPEEEEGGCELRVKFSRSADAPAYKQGQNQLYNELNLGRREEYDVLDKRRGRDPEMGGKPRRKNPQEGLYNELQKDKMAEAYSEIGMKGERRRGKGHDGLYQGLSTATKDTYDALHMQALPPR
notes: also called CD19-52 CAR
Gated for CD19-CAR-FITC expression [3]: 14.5 mfi | Gated for CD19-CAR-FITC expression [4]: 5.56 mfi | Gated for CD19-CAR expression [5]: 30.4 mfi | IL-2 & TNF-α, intracellular cytokine staining, Nalm6 stimulation, ND608 CAR T cells day 9 [6]: 37% | IL-2, intracellular cytokine staining, Nalm6 stimulation, ND608 CAR T cells day 9 [6]: 1.06% | TNF-α, intracellular cytokine staining, Nalm6 stimulation, ND608 CAR T cells day 9 [6]: 36.1% | Gated for CD19 CAR Expression [7]: 20.1 mfi

B2: CD19 11 scFv (P7) (scFv)
scFv: DIQMTQSPSSLSASVGDRVTITCRASQSISSYLNWYQQKPGKAPKLLIYAASSLQSGVPSRFSGSGSGTDFTLTISSLQPEDFATYYCQQTGAVPYTFGQGTKVEIKGGGGSGGGGSGGGGSEVQLLESGGGLVQPGGSLRLSCAASGFTFRDYAMSWVRQAPGKGLEWVSAISESGIDTYYADSVKGRFTISRDNSKNTLYLQMNSLRAEDTAVYYCARVAGYDSDSSTYYDYMDVWGQGTLVTVSS
notes: also called 48; clone 48
binding result [8]: binds

B3: CD19 CAR comprising CD19 binder 45 (anti-CD19 scFv-BBz CAR) on T cells (other)
chain: DIQMTQSPSSLSASVGDRVTITCRASQDITRYLNWYQQKPGKAPKLLIYAASSLQSGVPSRFSGSGSGTDFTLTISSLQPEDFATYYCQQSYSYPPTFGQGTKVEIKGGGGSGGGGSGGGGSQVQLVESGGGVVQPGRSLRLSCAASGFTFRDYGMHWVRQAPGKGLEWVAVISYEGSNEYYADSVKGRFTISRDNSKNTLYLQMNSLRAEDTAVYYCARDRGFAGWYDYAFDPWGQGTLVTVSSTTTPAPRPPTPAPTIASQPLSLRPEACRPAAGGAVHTRGLDFACDIYIWAPLAGTCGVLLLSLVITLYCKRGRKKLLYIFKQPFMRPVQTTQEEDGCSCRFPEEEEGGCELRVKFSRSADAPAYKQGQNQLYNELNLGRREEYDVLDKRRGRDPEMGGKPRRKNPQEGLYNELQKDKMAEAYSEIGMKGERRRGKGHDGLYQGLSTATKDTYDALHMQALPPR
notes: also called CD19-45 CAR; 45 original
Gated for CD19-CAR-FITC expression [3]: 9.64 mfi | Gated for CD19-CAR-FITC expression [4]: 4.76 mfi | Gated for CD19-CAR expression [5]: 23.1 mfi | IL-2 & TNF-α, intracellular cytokine staining, Nalm6 stimulation, ND608 CAR T cells day 9 [6]: 28.1% | IL-2, intracellular cytokine staining, Nalm6 stimulation, ND608 CAR T cells day 9 [6]: 1.16% | TNF-α, intracellular cytokine staining, Nalm6 stimulation, ND608 CAR T cells day 9 [6]: 25.2% | Gated for CD19 CAR Expression [7]: 17.7 mfi

B4: CD19 10 scFv (P6) (scFv)
scFv: DIQMTQSPSSLSASVGDRVTITCRASQTISRYLNWYQQKPGKAPKLLIYAASSLQSGVPSRFSGSGSGTDFTLTISSLQPEDFATYYCQQSYRPPLTFGQGTKVEIKGGGGSGGGGSGGGGSEVQLLESGGGLVQPGGSLRLSCAASGFTFSSYAMSWVRQAPGKGLEWVSTISAGGHGTYYADSVKGRFTISRDNSKNTLYLQMNSLRAEDTAVYYCARGAGYFDYWGQGTLVTVSS
notes: also called 47; clone 47
binding result [8]: binds

B5: CD19 23 scFv (P12) (scFv)
scFv: DIQMTQSPSSLSASVGDRVTITCRASQSIYSYLNWYQQKRGKAPKLLIYDASSLQSGVPSRFSGSGSGTDFTLTISSLQPEDFATYYCQQSYTAPPTFGQGTKVEIKGGGGSGGGGSGGGGSEVQLLESGGGLVQPGGSLRLSCAASGFTFSNYAMSWVRQAPGKGLEWVSAISESGHGTYYADSVKGRFTISRDNSKNTLYLQMNSLRAEDTAVYYCARLDWAGFDVWGQGTLVTVSS
notes: also called 53; clone 53
binding result [8]: binds

B6: CD19 7 scFv (P5) (scFv)
scFv: DIQMTQSPSSLSASVGDRVTITCRASQSISKYLNWYQQKPGKAPKLLIYDASSLQSGVPSRFSGSGSGTDFTLTISSLQPEDFATYYCQQSYTIPLTFGQGTKVEIKGGGGSGGGGSGGGGSQVQLVQSGAEVKKPGSSVKVSCKASGGTFSSYAFSWVRQAPGQGLEWMGGIVPLFGAVEYAQKFQGRVTITADESTSTAYMELSSLRSEDTAVYYCAREKGFYRYFDHWGQGTLVTVSS
notes: also called 46; clone 46
binding result [8]: binds

B7: CD19 14 scFv (P8) (scFv)
scFv: DIQMTQSPSSLSASVGDRVTITCRASQSISNYLNWYQQKPGKAPKLLIYAASSLQSGVPSRFSGSGSGTDFTLTISSLQPEDFATYYCQQAYSAPITFGQGTKVEIKGGGGSGGGGSGGGGSEVQLLESGGGLVQPGGSLRLSCAASGFTFGDYAMSWVRQAPGKGLEWVSAISRGGHGTYYADSVKGRFTISRDNSKNTLYLQMNSLRAEDTAVYYCARLVGYGLDYWGQGTLVTVSS
notes: also called 49; clone 49
binding result [8]: binds
